Measured values: the supplement of paper PMC9112550, “Optimization of the antimicrobial peptide Bac7 by deep mutational scanning” (BMC Biology, 2022)

Tested on: Escherichia coli TOP10
Test: shrunken log2 fold change of peptide-encoding DNA abundance (4.5 h post-induction vs induction); higher = less antimicrobial activity (less host growth inhibition)
Details: time post-induction: 4.5 h; library: site-saturation at positions 5, 18, 19, 20
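Also: peptides expressed intracellularly from a pBAD plasmid library in pooled LB shake-flask culture, induced with 0.3% L-arabinose, DNA abundance read by NGS, three biological replicates, DESeq2 with apeglm shrinkage.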

Row | Sequence | shrunken log2 fold change
1 | RRIRSRPPRLPRPRPRPTPVPRP | 0.381
2 | RRIRARPPRLPRPRPRPNFFPRP | 0.349
3 | RRIRARPPRLPRPRPRPRIHPRP | -0.145
4 | RRIRNRPPRLPRPRPRPEAPPRP | 3.17
5 | RRIRFRPPRLPRPRPRPNFDPRP | -0.181
6 | RRIRNRPPRLPRPRPRPCADPRP | 1.47
7 | RRIRTRPPRLPRPRPRPQQAPRP | -0.0444
8 | RRIRWRPPRLPRPRPRPGPMPRP | 0.327
9 | RRIRERPPRLPRPRPRPVVWPRP | 0.33
10 | RRIRARPPRLPRPRPRPEVMPRP | 0.28
11 | RRIRVRPPRLPRPRPRPQTVPRP | -0.0217
12 | RRIRHRPPRLPRPRPRPVQHPRP | -0.0639
13 | RRIRQRPPRLPRPRPRPRYAPRP | 0.0355
14 | RRIRFRPPRLPRPRPRPYCPPRP | -0.721
15 | RRIRQRPPRLPRPRPRPDRDPRP | -0.242
16 | RRIRQRPPRLPRPRPRPYMPPRP | -0.0463
17 | RRIRLRPPRLPRPRPRPKIYPRP | -0.492
18 | RRIRNRPPRLPRPRPRPFCPPRP | -0.278
19 | RRIRPRPPRLPRPRPRPEIYPRP | 0.0694
20 | RRIRRRPPRLPRPRPRPYCIPRP | -0.264
21 | RRIRQRPPRLPRPRPRPVLLPRP | -0.154
22 | RRIRRRPPRLPRPRPRPWTHPRP | 0.0267
23 | RRIRERPPRLPRPRPRPIQKPRP | -0.184
24 | RRIRSRPPRLPRPRPRPNNRPRP | -0.475
25 | RRIRCRPPRLPRPRPRPTSFPRP | -0.306

Row | Sequence | shrunken log2 fold change
26 | RRIRCRPPRLPRPRPRPEMIPRP | 0.12
27 | RRIRWRPPRLPRPRPRPMQGPRP | 0.00185
28 | RRIRRRPPRLPRPRPRPKTCPRP | 0.265
29 | RRIRFRPPRLPRPRPRPGVKPRP | -0.0657
30 | RRIRERPPRLPRPRPRPYTIPRP | -0.267
31 | RRIRSRPPRLPRPRPRPPGAPRP | 0.61
32 | RRIRVRPPRLPRPRPRPDHMPRP | -0.384
33 | RRIRWRPPRLPRPRPRPVNFPRP | 0.0606
34 | RRIRRRPPRLPRPRPRPFAQPRP | 0.199
35 | RRIRGRPPRLPRPRPRPAYVPRP | -0.0723
36 | RRIRRRPPRLPRPRPRPCIHPRP | -0.402
37 | RRIRQRPPRLPRPRPRPYCHPRP | -0.0183
38 | RRIRDRPPRLPRPRPRPMLAPRP | 0.607
39 | RRIRCRPPRLPRPRPRPVDHPRP | -0.148
40 | RRIRKRPPRLPRPRPRPDQAPRP | -0.029
41 | RRIRMRPPRLPRPRPRPGMKPRP | 0.282
42 | RRIRCRPPRLPRPRPRPPPLPRP | 1.15
43 | RRIRDRPPRLPRPRPRPDMKPRP | -0.00136
44 | RRIRYRPPRLPRPRPRPQKSPRP | -0.208
45 | RRIRIRPPRLPRPRPRPNCQPRP | -0.367
46 | RRIRYRPPRLPRPRPRPQNSPRP | -0.00968
47 | RRIRMRPPRLPRPRPRPSPMPRP | 0.369
48 | RRIRKRPPRLPRPRPRPMTWPRP | -0.00388
49 | RRIRKRPPRLPRPRPRPQFWPRP | 0.248
50 | RRIRCRPPRLPRPRPRPTTAPRP | 0.166

Row | Sequence | shrunken log2 fold change
51 | RRIRNRPPRLPRPRPRPMKWPRP | 0.0456
52 | RRIRLRPPRLPRPRPRPVLEPRP | -0.335
53 | RRIRFRPPRLPRPRPRPTPLPRP | 0.3
54 | RRIRHRPPRLPRPRPRPSKKPRP | 0.0943
55 | RRIRHRPPRLPRPRPRPMRYPRP | -0.0889
56 | RRIRARPPRLPRPRPRPVNHPRP | -0.298
57 | RRIRVRPPRLPRPRPRPGILPRP | -0.466
58 | RRIRSRPPRLPRPRPRPGHIPRP | -0.109
59 | RRIRRRPPRLPRPRPRPMGKPRP | 0.35
60 | RRIRPRPPRLPRPRPRPCPKPRP | -0.0283
61 | RRIRIRPPRLPRPRPRPISMPRP | 0.0215
62 | RRIRIRPPRLPRPRPRPGNKPRP | -0.569
63 | RRIRIRPPRLPRPRPRPPSVPRP | -0.0681
64 | RRIRHRPPRLPRPRPRPNIKPRP | -0.69
65 | RRIRLRPPRLPRPRPRPWDFPRP | -0.00136
66 | RRIRFRPPRLPRPRPRPQSLPRP | -0.274
67 | RRIRIRPPRLPRPRPRPDSDPRP | -0.0273
68 | RRIRGRPPRLPRPRPRPRSVPRP | 0.662
69 | RRIRYRPPRLPRPRPRPADLPRP | -0.00419
70 | RRIRERPPRLPRPRPRPQWSPRP | 0.0836
71 | RRIRHRPPRLPRPRPRPLMRPRP | 0.221
72 | RRIRRRPPRLPRPRPRPALSPRP | 0.528
73 | RRIRLRPPRLPRPRPRPWMDPRP | 0.0138
74 | RRIRIRPPRLPRPRPRPTYSPRP | -0.408
75 | RRIRKRPPRLPRPRPRPWNGPRP | -0.0782

Row | Sequence | shrunken log2 fold change
76 | RRIRHRPPRLPRPRPRPEEIPRP | 0.0207
77 | RRIRNRPPRLPRPRPRPVIIPRP | -0.0963
78 | RRIRNRPPRLPRPRPRPDQDPRP | -0.00104
79 | RRIRMRPPRLPRPRPRPGRSPRP | 0.303
80 | RRIRQRPPRLPRPRPRPECHPRP | 0.268
81 | RRIRVRPPRLPRPRPRPSYTPRP | -0.27
82 | RRIRGRPPRLPRPRPRPYTLPRP | -0.616
83 | RRIRWRPPRLPRPRPRPGLPPRP | 0.288
84 | RRIRPRPPRLPRPRPRPRTNPRP | -0.0218
85 | RRIRRRPPRLPRPRPRPLHKPRP | -0.191
86 | RRIRIRPPRLPRPRPRPTAWPRP | 0.152
87 | RRIRIRPPRLPRPRPRPAPWPRP | 0.0917
88 | RRIRGRPPRLPRPRPRPMEVPRP | -0.121
89 | RRIRIRPPRLPRPRPRPKQKPRP | -0.12
90 | RRIRMRPPRLPRPRPRPHDEPRP | -0.0018
91 | RRIRVRPPRLPRPRPRPEMNPRP | -0.16
92 | RRIRLRPPRLPRPRPRPRMIPRP | 0.119
93 | RRIRMRPPRLPRPRPRPQTFPRP | -0.0186
94 | RRIRSRPPRLPRPRPRPLWMPRP | -0.0686
95 | RRIRQRPPRLPRPRPRPFQWPRP | 0.0154
96 | RRIRHRPPRLPRPRPRPGHLPRP | -0.0129
97 | RRIRARPPRLPRPRPRPPNIPRP | 0.0251
98 | RRIRHRPPRLPRPRPRPGTDPRP | -0.0998
99 | RRIRWRPPRLPRPRPRPEPDPRP | 0.901
100 | RRIRTRPPRLPRPRPRPGPNPRP | -0.0314

Row | Sequence | shrunken log2 fold change
101 | RRIRFRPPRLPRPRPRPICKPRP | -0.0703
102 | RRIRMRPPRLPRPRPRPNLGPRP | -0.0136
103 | RRIRQRPPRLPRPRPRPMPTPRP | 0.0311
104 | RRIRHRPPRLPRPRPRPSDPPRP | -0.0545
105 | RRIRWRPPRLPRPRPRPILSPRP | -0.422
106 | RRIRFRPPRLPRPRPRPWHLPRP | -0.0307
107 | RRIRIRPPRLPRPRPRPNYWPRP | -0.728
108 | RRIRDRPPRLPRPRPRPKVYPRP | -0.0329
109 | RRIRERPPRLPRPRPRPWPSPRP | 0.134
110 | RRIRMRPPRLPRPRPRPEGQPRP | -0.00185
111 | RRIRRRPPRLPRPRPRPSPDPRP | 0.608
112 | RRIRSRPPRLPRPRPRPCVDPRP | 0.00587
113 | RRIRDRPPRLPRPRPRPLNDPRP | -0.172
114 | RRIRIRPPRLPRPRPRPDFLPRP | -0.725
115 | RRIRKRPPRLPRPRPRPGYQPRP | 0.0954
116 | RRIRERPPRLPRPRPRPVRYPRP | -0.582
117 | RRIRQRPPRLPRPRPRPESYPRP | -0.0748
118 | RRIRDRPPRLPRPRPRPHWGPRP | 0.00196
119 | RRIRNRPPRLPRPRPRPGFTPRP | 0.0826
120 | RRIRIRPPRLPRPRPRPMCEPRP | -0.00819
121 | RRIRYRPPRLPRPRPRPAVFPRP | -0.0965
122 | RRIRPRPPRLPRPRPRPPCAPRP | 0.925
123 | RRIRNRPPRLPRPRPRPRDAPRP | -0.163
124 | RRIRVRPPRLPRPRPRPSQSPRP | -0.146
125 | RRIRSRPPRLPRPRPRPVDPPRP | 0.00726
